Assay: yeast display, Sf9 membrane polyspecificity reagent, FACS + sequencing; frameworks hold sequencing errors
In short: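 Galactose-induced (36–48 hours) yeast carrying a synthetic nanobody display library were exposed to 10% biotinylated, detergent-solubilized Sf9 membrane reagent at 4 °C for 1 hour. FACS followed streptavidin microbead enrichment, using low and high (top ~1%) gates for expression (anti-HA) and reagent binding (streptavidin). Colony PCR, MiSeq 2 × 250 sequencing and CDR-length filtering followed. Labels for polyreactivity reflect the gate of origin.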

| Sequence | polyreactivity (PSR sort gate) |
| --- | --- |
| QVQLVESGGGLVQAGGSLRLSCAASGFTFLLYAMGWYRQAPGKERELVAAITWSTGNTYYADSVKGRFTISRDNAKNTVYLQMNSLKPEDTAVYYCYAEYLVITWYGGVEFDYWGQGTQVTVSS | low polyreactivity |
| QVQLVESGGGLVQAGGILRLSCAASGRIFSRYAMGWYRQAPGKERELVAAISSSGTTTYYADSVKARFTISRDNAKNTVYLQMNSLKPEDTAVYYCAVEDRWYGPGYEYWGQGTQVTVSS | high polyreactivity |
| QVQLVESGGGLVQAGGSLRLSCAAYGRIFVFYDMGWYRQAPGKDRELVATISFRGGSTYYADSVKGRFTISRDNAKNTVYLQMNCLKPEDTAVYYCAKENKRGYSTSGYYYWGQGTQVTVSS | low polyreactivity |
| QVQLVESGGGLVQAGGSLRLSFAASGSIFYRNSMGWYRQAPGKERELVAAISWSGASTYYADSVKGRFTISRDNAKNTVYLQMNSLKPEETAVYYCYAGKYAYLWLKLFDPKLDYWGQGTQVTVSS | low polyreactivity |
| QVQLVESGGGLVQAGGSLRLSCAASGRILYGYAMGWYRQAPGTERELVASLSSGGRTYYADSVKGRFTISRDNAKNTVYLQMNSLKPEDTAVYYCAAVAYGNWYRYYYWGQGTQVTVSS | high polyreactivity |
| QVQLVESGGGLVQAGGSLRLSCAASGSTLESYAMGWYRQAPGKERELVAAISKSGGRTYYADSVKGRFTISRDNAKNTLYLQMNSLKPEDTAVYYCAADSGTHLTYYWGQGTQVTVSS | high polyreactivity |
| QVQLVESGGGLVQAGGSLRLSCAASGLIFRPYTMGWYRQAPGKERELVAAISRSGGSTYYADSVKGRFTISRDNAKNTVYLQVNSLKPEDTAVYYCNAVPRRQGFNYWGQGTQVTVSS | high polyreactivity |
| QVQLVESGGGLVQAGGSLRLSCAASGFIFRLNAMGWYTQAPGKERELVATITSSGSTSYADSVKGRFTISRDNAKNTVYLQMNSLKPEDTAVYYCAARRLRYRYPLYSRNYWGQGTQVTVSS | high polyreactivity |
| QVQLVESGGGLVQAGGSLRLICAASGSILYKYAMGWYRQAPGKERELVAAISSRGGNTYYADSVKGRFTISRDNSKNTVYLQMNSLKPEDTAVYYCAADLWAGKYGEYDYWGQGTQVTVSS | high polyreactivity |
| QVQLVESGGGLVQAGGSLRLRCGASGFIFEHYAMGWYRPAPAKERDFVAAISGSGGNKYYADSVKGRFTISRDNAKNTVYLQMNSLKPEDTAVYSCNKVDGTTLDDHYMDYWGQGTQVTVSS | low polyreactivity |
| QVQLVESGGGLVQAGGSLRLSCAASGLTFDKYTMGWYRQAPGKERELVARISTSGSRTYYADSVKGRFTISRDNAKNTVYLQMNSLKPEDTAVYYCNKDGWIRRRRGYDYWGQGTQVTVSS | high polyreactivity |
| QVQLVESGGGLVQAGGSLRLSCAASGIIFSINAMGWYRQAPGKERELVAAISRSGGSTNYADSVKGRFTISRDNAKNTVYLQMNSLKPEDTAVYYCATVHRYSVWSHNYWGQGTQVTVSS | high polyreactivity |
| QVQLVESGGGLVQAGGSLRLSCAASGSIFLQYAMAWYRQAPGKERELVAAISWSGGSTYYAYSVKGRFTISRDNAKNTVYLQMNSLKPEDTAVYYCAAPITPYSHYRMDYWGQGTQVTVSS | low polyreactivity |
| QVQLVESGGGLFQAGGSLRLSCAASGFIFAWYAMGWSRQAPGKERELVATISSSGARTYYADSVKGRFTISRDNAKNTVYLQLNRLKPEDTAVYYCASVYSTLGVGYYYWGQGTQVTVSS | high polyreactivity |
| QDQLVDSGGGLVQAGGSLRLSCAPSGSTIYPNAKGWTRQAPGKERELVAGISSGGGTYYADSVKGRFTISRDNAKNTVYLQMNSLKPEDTAVYYCNAYFLSSCLDYLGQGTQVTVSS | low polyreactivity |
| QVQLVESGGGLVQAGGSLRLSCAASGSIFFSNVMGWYRQAPGKERELVAAITGRTGSTYYADSVKGRFTISRDNAKNTVYLQMNSLKPEDTAVYYCFSYWPRYWQSGNDYWGQGTQVTVSS | high polyreactivity |
| QVQLVESGGGLVQAGGSLRLTCAASGGISLYYVMGWYRQAPGKERELVADISGDDSTNYADSVKGRFTISRDNAKNTVYLQMNSLKPEDTAVYYCAAVPGLFYLPYDYWGQGTQVTVSS | low polyreactivity |
| QVQLVESGGGLVQAGGSLRLSCAASGRIFHIYAMGWYRQAPGKERELVAAIRSSGGSTYYADSVKGRFTISRDNAKNTVYLQMNSLKPEDTAVYYCAVDYGNPVYWDEMYYWGQGTQVTVSS | low polyreactivity |
| QVHLVESGGGLVQAGGSLRLSCAASGSTLYDNAMGWYRQAPGKERELVAAITRRGAGTYYADSVKGRFTISRDNAKNTVYLQMNSLKPEDTAVYYCNAGRPYFVRYYYWGHGTQVTVSS | high polyreactivity |
| QVQLVESGGGLVQAGGSLRLSCAASGGIFSVYGMGWYRQAPGKERELVAVIRRGGSTYYADSVKGRFTISRDNAKNTVYLQMNSLKPEDTAVYYCATDYPGYFVDGNYYWGQGTQVTVSS | low polyreactivity |
| QVQLVESGGGLVHAGGSLRLSCAASGRIFFDYTMGWYRQAPGKERELVAAIRTRGDSTYYADSVKGRFTISRDNAKNTFYLQMNSLKPEDTAVYYCAAAVYVRGRRESWGQGTQVTVSS | high polyreactivity |
| QVQLVESGGGLVQAGGSLRLSSAASGRTFGKYAMGWYRQAPGKESELVAAITNSGGSTYYADSVKGRFTISRDNAKNTVYLQMISLKPEDTAVYYCNRLGYRGPSILNHMGYWGQGTQVTVSS | high polyreactivity |

| Sequence | polyreactivity (PSR sort gate) |
| --- | --- |
| QVNLLDSGGGLVKAGGSLRLTCAASGSIYHPYTMGLYRQATGKETELVAAISWSGGNTNYADSVKGRFTISRDYAKNTVYLQMNSLKPEDTAVYYFAAAKRDFVEYDYWGEGTQVTVSS | low polyreactivity |
| QVQLVESGGGLVQAGGSLRLSCPASGLIYYRYVMGWYRQAPGKERELVAAISGNGASTYYADSVKGRFTISRDNAKNTVFLQMNSLKPVDTAVYYCNADVYVSSKTHSSYPQWWGYDYWGQGTQVTVSS | low polyreactivity |
| QVQLVESGGGLVQAGGSLRLSCAASGRIFKYYAMGWYRQAPGKERELVARISRSSGNTYYADSVKGRFTISRDNAKNTVYLQMNSLKPEDTAVYYCATVPHYNGFNYWGQGTQVTVSS | high polyreactivity |
| QVQLVESGGGLVQAGGSLRLSCAASGRNIYSNAMGWYRQAPGKERELVAAIRWRDGSTYYADSVKGRFTISRDNAKNTVFLQMNSLKPVDTAVYYCAAVYWGEEYEYWGQGTQVTVSS | low polyreactivity |
| QVQLGESGGALVQAGGSLRLSCAASGFTFKYYAMGWYRQAPGKERELVAAISRGGSTYYADSVKGRFTISRDNAKNTVYLQMNILKPEDTAVYYCAARYVRVGYDYWGQGTQVTVSS | high polyreactivity |
| QVQLVESGGGLVQAGGSLRLSCAASGFTFSYYAMGWYRQAPGKERELVAAITTSGGRTYYADSVKGRFTISRDNAKNTVYLQMNSLKPEDPAVYYCAATYPRYYSGEFDYWGQGTQVTVSS | high polyreactivity |
| QVQLVESGGGLVQAGGSLRLSCAASGFIFYRYAMGWYRQAPGKERELVAAISRSGGSTYYADSVKGRFTISRDNAKNTVYLQMNSLKPEDTAVYYCAADRGSLAPGNDYWGQGTQVTVSS | high polyreactivity |
| QVQLVESGGGLFQEGGSLRLSCAASGSIFSYYAMGWYRQAPGKERELVAAISTYGGRTYYADSVKGRFTISRDNAKNTVYLQMNSLKPEDTAVYYCAGPVRWKNYDYWGQGTPVTVSS | high polyreactivity |
| QVQLVETGGGLVQAGGSLRLSCAASGRIFRGNTMGWYRQAPGKERELVAAITIRGRTYYADSVKGRFTISRDNAKNTVYLQMNSLKPEDTAVYYCAVASAGDNDYGGQGTQVTVSS | low polyreactivity |
| QVQLVESGGGLVQAGGSLRLSCAASGYTFSHYPMGWYRQAPGKERELVAGITWSGGSTYYADSVKGRFTISRDNAKNTVYLQMNSLKPEDTSVYYCAGKYYWYYSYSGIPLFDYWGQGTQVTVSS | low polyreactivity |
| QVQLVESGGGLVQAGGSLRLSCAASGFIFSGYAMGWYRQAPGKERELVASISWSGARTNYADSVKGRFTISRDNAKNTVYLQMNSLKPEDTAVYYCAAQVGRGYEVYPVYKYGYWGQGTQVTVSS | high polyreactivity |
| QVQLVESGGGLVQAGGSLRLSCAASGSTFWLNAMGWYRPAPGKEWEFVAAITVRGGSTYYADSVKGRFTISRDNAKNTVYLQMNSLKPEDTAVYYCNKGSIEKTEMEYWGQGTQVTVSS | low polyreactivity |
| QVQLVESGGGLVQAGGSLRLSCAASGYTLRIYAMGWYRQAPGKERELVAAISRSGGRTFYADSVKGRFTISRDNAKNTVYLQMISLTPEDTAVFYCAAVSAYYYRRTYEYWGQGTQVTVSS | high polyreactivity |
| QVQLVESGGGLVQAGGSLRISCAASGSNFAYYAMGWYRQAPGKERELVAAITRGGRTYYADSVKGRFTISRDNAKNTVYLQMNSLKPEDTAVYYCNARNYTWYSSRFMRFDYWGLGTQVTVSS | high polyreactivity |
| QVQLVESGGGLVQAGGSLRLMCAASGSTFRRNAMGWYRQAPGKERELVASISWRAGSTYYADSVKGRFTISRDNAKNTVYLQMNSLKQEDTAVYYCAASYYYYPSWEYEYWGQGTQVTVSS | high polyreactivity |
| QVQLVESGGALVQAGGSLRLSCAASGNTFQRYTMGWYRQAPGKERELVAAITWSGGNTYYADSVKGRFTISRDNAKNSVYLQMNSLKPEDTAVYDCNADYPTTAYDYWGQGTQVTVSS | low polyreactivity |
| QVQLVESGGRLVQAGGSLRLSCAASGSTINKYAMGWYRQAPGKERELVAAISRSGGSTNYADSVKGRFTISRDNAKNTVYLQMNSLKPEDNAVYYCNRTRYRSFHYDYWGQGTQVTVSS | high polyreactivity |
| QVQLVETGGGLVQAGGTLRLSCAASGRTFSRNAMGCDRPAPGKERELVAAITSGGGTYYADSVKGRFTISRDNAKNTVYLQMNSLKPEDTAVYYCNKKTSAGRVDYWGQGTQVTVSS | high polyreactivity |
| QVQLVESGAGLVQAGGRLRLSCAASGFTFRAYDMGWSRQAPAKERELVAAINISGGSTYYADSVKGRFTISRDNAKNTVYLQMNSLKPVDTAVYYCAAVPWVGTLYPRVGYWGQGTQGTVSS | low polyreactivity |
| QVQLVESGGGLVQAGGSLRLSCAASGFTFYTYAMRLYRQAPGKERELVAAISKSGGSTYYADSVKGRFTISRDNAKNTVYLQMNSLKPEDTAVYYCAAVVVYFDEYDYWGQGTQVTVSS | low polyreactivity |
| QVQLVESGGGLVQAGGSLRLSCAASGRTFGRYAMGWYRQAPGKERDLVATITSGGSTNYADSVKGRFTISRDNAKNTVYLQMNSLKPVDTAVYYCAAEFSPSRWAYSEGALRYNYWGHGTQVTVSS | low polyreactivity |

Source: the nanobody polyreactivity screen of Harvey et al. (2022)
